# Results: the nanobody polyreactivity screen of Harvey et al. (2022)
# Experiment: yeast display, Sf9 membrane polyspecificity reagent, FACS + sequencing; frameworks hold sequencing errors
# Outline: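 A synthetic nanobody library was expressed on Saccharomyces cerevisiae BJ5465 by galactose induction for 36–48 hours. The library was stained for 1 hour at 4 °C with 10% biotinylated, detergent-solubilized Sf9 membrane reagent and enriched with streptavidin microbeads before FACS. Low and high (top ~1%) gates were set on anti-HA fluorescence for expression and streptavidin fluorescence for reagent binding, and each polyreactivity label reflects the gate of origin.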
row,Sequence,polyreactivity (PSR sort gate)
1,QVQLVESGGGLVQAGGSLRLSCAASGRIFGRNAMGWYRQAPGKERELVAAISSGGGRTYYADSVKGRFTISRDNAKNTVYLQMNSLKPEDTSVYYCAAEDWYEYDYWGQGTQVTVSS,high polyreactivity
2,QVQLVESGGGLVQAGGSLRLSCAASGRIFGRNAMGWYRQAPGKERELVAAISSSGGRTYYADSVKGRFSISRDNAKNTVYLQMMSLKPEDTAVYYCAAVGSLYYYRYDYWGQGTQVTVSS,high polyreactivity
3,QVQLVESGGGLVQAGGSLRLSCAASGRIFGRNAMGWYRQAPGKERELVAAISSSGRTYYADSVKGRFTISRDNAKNTVYLQMNSLKPEDTAVYYCAAYGYSWGQGTQVTVSS,high polyreactivity
4,QVQLVESGGGLVQAGGSLRLSCAASGRIFGRNAMGWYRQAPGKERELVASITSGGGTNYADSVKGRFTISRDNAKNTVYLQMNCLKPEDTAVYYCAAKRHLEGYSGSIGRYYYWGQGTQVTVSS,low polyreactivity
5,QVQLVESGGGLVQAGGSLRLSCAASGRIFGRNTMGWYRQAPGKERELVAAISYSAGSTYYADSVKGRFTISRDNAKNTVYLQMNSLKPEDTAVYYCAAGYIRTTYRTNRYGYWGQGTQVTVSS,high polyreactivity
6,QVQLVESGGGLVQAGGSLRLSCAASGRIFGRYAMGGSRQAPGKERELVAAITSSGGNTYYADSVKGRFTISRDNAKNTVYLQMNSLKPEDTAVYYCNALSARSRLQSDYWGQGTQVTVSS,high polyreactivity
7,QVQLVESGGGLVQAGGSLRLSCAASGRIFGRYAMGWYRPAPGKEREFVAAISKRGGGTYYADSVKGRFTISRDNAKNTVYLQMNSLKPEDTAVYYCAVDNSPGFDDYDYWGQGTQVTVSS,high polyreactivity
8,QVQLVESGGGLVQAGGSLRLSCAASGRIFGRYAMGWYRQAPGKEREFVAAISKRGGGTYYADSVKGRFTISRDNAKNTVYLQMISLKPEDTAVYYCAVDNSPGFDDYDYWGQGTQVTVSS,high polyreactivity
9,QVQLVESGGGLVQAGGSLRLSCAASGRIFGRYAMGWYRQAPGKERELVAAISSGGNTYYADSVKGRFTISRDNAKNTVYLQMISLKPEDTAVYYCNALYYRPPGYDYWGQGTQLTVSS,high polyreactivity
10,QVQLVESGGGLVQAGGSLRLSCAASGRIFGRYAMGWYRQAPGKERELVAVISARGARTYYADSVKGRFTISRDNAKNTVYLQRNSLKPEDTAVYYCAVDQYATDDYWGQGTQVTVSS,high polyreactivity
11,QVQLVESGGGLVQAGGSLRLSCAASGRIFGRYAMGWYRQAPGQERELVAGISARGGSTYYADSVKGRFTISRDNAKNTVYLQMNSLKPDDTAVYYCAAYAGFSDQAGYFYWGQGTQVTVSS,high polyreactivity
12,QVQLVESGGGLVQAGGSLRLSCAASGRIFGSNAMGWYRQAPGKERELVAAISWRGASTYYADSVKGRFTISRDNAKNTVYLQMNSLIPEDTAVYYCFLRGRATQWDFGYWGQGTQVTVSS,high polyreactivity
13,QVQLVESGGGLVQAGGSLRLSCAASGRIFGSYAMGWYRQAPGKERELVASISGSGTSTYYADSVKGRFTISRDNAKNTVYLQMNSLKPEDTAVYYCARYVRYYPSKFYYWGQGTQVTVSS,high polyreactivity
14,QVQLVESGGGLVQAGGSLRLSCAASGRIFGSYVMGWYRQAPGKVRELVAAISRRGGSTYYADSVKGRFTISRDNAKNTVYLQMNSLKPEDTAVYYCAAEFSPSSNPYDYWGQGTQVTVSS,high polyreactivity
15,QVQLVESGGGLVQAGGSLRLSCAASGRIFGTNAMGWYRQAPGKERELVAAISRGGNTYYADSVKGRFTISRDNAKNTVYLQMNSLKPEDTAVYYCAARPGSGRSYTSDYWGQGTQVTVSS,high polyreactivity
16,QVQLVESGGGLVQAGGSLRLSCAASGRIFGTNAMGWYRQAPGKERELVAAISRSGGSTYYADSVKGRFTISRDNAKNTVYLQMNSLKPEDTAVYYCATDGRHTYYYWGQGTQVTVST,high polyreactivity
17,QVQLVESGGGLVQAGGSLRLSCAASGRIFGTNAMGWYRQAPRKERELVADITSGGSTNYADSVKGRFTISRDNAKNTVYLQMNSLKPEDTAVYYCAADVIGDLRWYRDEYWGQVTQVTVSS,low polyreactivity
18,QVQLVESGGGLVQAGGSLRLSCAASGRIFGTYAMGWYRQAPGKERELVAAITSSGSTNYADSVKGRFTISRDTAKKTVYLQMNSLKPEDTAVYYCAAVWVVFYYCYTVPVHYEYWGQGTQVTVSS,low polyreactivity
19,QVQLVESGGGLVQAGGSLRLSCAASGRIFGTYTMGWYRQAPGKERELVAAITTGGITNYADSVKGRFTISRDNAKNTVYLQMNSLKPEDTAVYYCNARWDYGAYEYWGQGTQVTVSS,low polyreactivity
20,QVQLVESGGGLVQAGGSLRLSCAASGRIFGVNAMGWYRQAPGKEREFVAVISSVGSTYYADSVKGRFTISRDNAKNTVYLQMKSLKPEDTAVYYCNAVVGRWFPYYLSDYWGQGTQVTVSS,low polyreactivity
21,QVQLVESGGGLVQAGGSLRLSCAASGRIFGVNAMGWYRQAPGKERELVAGISISGGSTHYADSVKGRFTISRDNAKNTVYLQMNSLKPEDTAVYYCAKRFYKYVSYWHDYWGQGTQVTVSS,low polyreactivity
22,QVQLVESGGGLVQAGGSLRLSCAASGRIFGVNAMGWYRQAPGKERELVAHIRSSGASTYYADSVKGRFTISRDNAKNTVYLQMNSLKPEDTAVYYCARDYFVDGPGYDYWGQGTQVTVSS,low polyreactivity

row,Sequence,polyreactivity (PSR sort gate)
1,QVQLVESGGGLVQAGGSLRLSCAASGRIFGVNAMGWYRQAPGNERELVAHIRSSGASTYYADSVKGRFTISRDNAKNTVYLQMNSLKPEDTAVYYCARDYFVDGPGYDYWGQGTQVTVSS,low polyreactivity
2,QVQLVESGGGLVQAGGSLRLSCAASGRIFGVNAMGWYTQAPGKERELVAAIRYTGGSTYYADSVKGRFTISRDNAKNTVYLQMNSLKPEDTAVYYCAKARYTYSWSFGYWGQGTQVTVSS,low polyreactivity
3,QVQLVESGGGLVQAGGSLRLSCAASGRIFGVYAMGWYRQAPGKDREFVASITRGGGRTYYADSVKGRFTISRDNAKNTVYLQMNSLKPEDTAVYYCNAVVNSYPYYYWGQGTQVTVSS,high polyreactivity
4,QVQLVESGGGLVQAGGSLRLSCAASGRIFGVYAMGWYRQAPGKERELVAAISSGASTYYADSVKGRFTISRDNAKNTVYLQMNSLKPEDTAVYYCAKSVKGGTGYYYWGQGTQVTVSS,low polyreactivity
5,QVQLVESGGGLVQAGGSLRLSCAASGRIFGVYAMGWYRQAPGKERELVATIRSSGTRTNYADSVKGRFTISRDNAKNTVYLQMNSLKPEDTAVYYCAAGGRPYKLDFTRSDYWGQGTQVTVSS,low polyreactivity
6,QVQLVESGGGLVQAGGSLRLSCAASGRIFGWYAKGWYRQAPGKETELVAAISPGGSTKYADSVKGRFTISRDYAKNTVYLQMNSLKPEDTADYYFAADLFNYTTGRDYWGQGTQVTVSS,low polyreactivity
7,QVQLVESGGGLVQAGGSLRLSCAASGRIFGWYAMGCYIQAPGKERELVAAISSNGGSTYYADSVKGRFTISRDNAKNTVYLQMNSLKPEDTAVYYCAAVRVFQYKYDRFNYWGQGTQVTVSS,high polyreactivity
8,QVQLVESGGGLVQAGGSLRLSCAASGRIFGWYAMGSYRQAPGKEREFVAAITRRGGRTYYADSVKGRFTISRDNEKNNVYLQMNSLKPEDTAVYYCAVKYVRIGGVGPIVIYNYWGQGTQVTVSS,high polyreactivity
9,QVQLVESGGGLVQAGGSLRLSCAASGRIFGWYAMGWYRQAPGKEREFVAAITVTGGSTYYADSVKGRFTISRDNAKNTVYLQMNSLKPEDTALYYCAADRWYTRTGFDYWGQVTQVTVSS,low polyreactivity
10,QVQLVESGGGLVQAGGSLRLSCAASGRIFGWYAMGWYRQAPGKERELVAAISRGGTTYYADSVKGRFTISRDNAKNTVYLQMNSLKPEDTAVYYCAAPVPYYVPRRNEGDYWGQGTQVTVSS,low polyreactivity
11,QVQLVESGGGLVQAGGSLRLSCAASGRIFGWYAMGWYRQAPGKERELVAAISSAGRTYYADSVKGRFTISRDNAKNTDYLQMNSLKPEDTAVYYCAAEIARSFYRYTYYYWGQGTQVTVSS,high polyreactivity
12,QVQLVESGGGLVQAGGSLRLSCAASGRIFGYNAMGWYRHAPGTERELVAAITNGGSTNYADSVKGRFTISRDNAKNTVYLQMNSLKPEDTAVYYCAADRGGLRWFWQVLYDYWGQGTQVTVSS,low polyreactivity
13,QVQLVESGGGLVQAGGSLRLSCAASGRIFGYNAMGWYRQAPGKERELVAAINSDGSKNYADSVKGRFTISRDNAKNTVYLQINSLNPEDTAVYYCAARWISVWSEGAEHDYWGQGTQVTVSS,low polyreactivity
14,QVQLVESGGGLVQAGGSLRLSCAASGRIFGYNAMGWYRQAPGKERELVDAITTSGGSTYYADSVKGRFTISRDNAKNTVYLQMNSLKPEDTAVYYCARDSLQVFYPYASDDYWGQGTQVTVSS,low polyreactivity
15,QVQLVESGGGLVQAGGSLRLSCAASGRIFGYNTMGWYRQAPGKERELVAAINSGGRTYYADSVKGRFPISRDNAKNTVYLQMNSLKPEDTAVYYCATTTYKRFYRAPTSKYDYWGQGTQVTVSS,high polyreactivity
16,QVQLVESGGGLVQAGGSLRLSCAASGRIFGYTMGWYRQAPGKERELVAAISKSGGSTYYADSVKGRFTISRDNAKNTVYLQMNSLKPEDTAVYYCAAEYGYGKRAYDSWGQGTQVTVSS,high polyreactivity
17,QVQLVESGGGLVQAGGSLRLSCAASGRIFGYYAMCWYRQAPGKERELVARITWYGGDTYYADSVKGRFTISRDNAKNTVYLQMNSLKPEHTAVYYCGADFVFYRQPDTYFYPHDYWGQGTQVTVTS,low polyreactivity
18,QVQLVESGGGLVQAGGSLRLSCAASGRIFGYYAMGWYRQAPGKEREFVAGITQRTDSTYYADSVKGRFTISRDNAKNTVYLQMKSLKPEDTAVYYCAARGYGGYHWGYYWGQGTQVTVSS,high polyreactivity
19,QVQLVESGGGLVQAGGSLRLSCAASGRIFGYYAMGWYRQAPGKERELVAAINSGSRTYYADSVKGRFTISRDNAKNTVYLQMISLKAEDTAVYDCAASVRYPPYRSSDGQRGGYWGQGTEVTVSS,high polyreactivity
20,QVQLVESGGGLVQAGGSLRLSCAASGRIFGYYAMGWYRQAPGKERELVAAIRRSGGSTYADSVKGRFTISRDNAKNTVYLQMNSLKPEDTAVYYCAAWIYEYDYWGQGTQVTVSS,high polyreactivity
21,QVQLVESGGGLVQAGGSLRLSCAASGRIFGYYAMGWYRQAPGKERELVAAISYRGSSTYYADSVKGRFTISRDNAKNTVYLQMNSLKPEDTAVYYCAAKGHGRTYDYWGQGTQVTVSS,high polyreactivity
